Experimental findings from the supplement of paper PMC9732359 are described below.

± gives the uncertainty stated by the source.

The nature of this data set: protein stability index of a GFP-peptide fusion (yeast GPS) (PSI 1-4); higher = more stable; sorted into four equal gates, so the index is relative within each strain. Summed up:
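The protein stability index combines read frequencies across sorting gates, each weighted by its gate number and then summed. To obtain those frequencies, a pooled yeast library of GFP fusions to tiled 17-residue yeast protein peptides, on a plasmid also expressing Cherry, was grown to mid-log phase in leucine-free medium. The cells were sorted into four equal gates by GFP/Cherry ratio before plasmid amplification by PCR and Illumina sequencing.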

Turning to KSSIEKDPSPEILVLYN [SIN4], the protein stability index (doa10∆) came out at 2.91 ± 0.05, the protein stability index (pdr5∆) turned out to be 2.9 ± 0.055, the protein stability index (san1∆) turned out to be 2.91 ± 0.045 and the protein stability index (ubr1∆) stood at 2.82 ± 0.043.
YQKLFSQFINDHILFTK [SRB8] gave a protein stability index (doa10∆) of 1.94 ± 0.044, a protein stability index (pdr5∆) of 2.06 ± 0.048, a protein stability index (san1∆) of 2.04 ± 0.065 and a protein stability index (ubr1∆) of 2 ± 0.04.
For the sequence YINGKATALANLRKSRG [RPO31], the protein stability index came out at 3 ± 0.067 (doa10∆), 3.13 ± 0.075 (pdr5∆), 2.81 ± 0.064 (san1∆) and 3 ± 0.067 (ubr1∆).
As to LEDLVFPTEIVGKRVRY [RPS7A], the protein stability index runs as follows: (pdr5∆) 3.52 ± 0.28; (ubr1∆) 3.71 ± 0.25.
On to LDEIFSGCDSTKPSLRK [ECM29], for which the protein stability index runs as follows: (doa10∆) 2.57 ± 0.078; (pdr5∆) 2.55 ± 0.06; (san1∆) 2.65 ± 0.065; (ubr1∆) 2.65 ± 0.038.
VGDEFKGYVFKISGGND [RPS6A] registered a protein stability index (doa10∆) of 3.08 ± 0.28, a protein stability index (pdr5∆) of 3.49 ± 0.13, a protein stability index (san1∆) of 3.06 ± 0.15 and a protein stability index (ubr1∆) of 3.58 ± 0.13.
For IFWGIRLAKSTENEIPN [BRR2], the protein stability index runs as follows: (doa10∆) 1.42 ± 0.089; (pdr5∆) 1.43 ± 0.055; (san1∆) 1.18 ± 0.13; (ubr1∆) 1.49 ± 0.064.
As to ESTAGSASTSATGISGS [ECM29], the protein stability index by setting is: (doa10∆) 3.31 ± 0.046; (pdr5∆) 3.35 ± 0.053; (san1∆) 3.12 ± 0.035; (ubr1∆) 3.277 ± 0.032.
Take SLTLSFIRHVAKLNYKN [ECM29]: the protein stability index by setting is: (doa10∆) 2.7 ± 0.092; (pdr5∆) 2.87 ± 0.088; (san1∆) 2.91 ± 0.054; (ubr1∆) 2.92 ± 0.048.
NDTLPDEISPELLSKYK [SNU114]: the protein stability index came out at 2.9 ± 0.067 (doa10∆), 2.8 ± 0.072 (pdr5∆), 3.03 ± 0.064 (san1∆) and 2.86 ± 0.075 (ubr1∆).
For the sequence FQFKLLQSNSKLASTLE [SMC4], the protein stability index reads like this: (doa10∆) 2.29 ± 0.056; (pdr5∆) 2.37 ± 0.042; (san1∆) 2.42 ± 0.055; (ubr1∆) 2.58 ± 0.038.
Taken in the same sequence, the figures for ELLEYSDDIAENDNLDN [YCG1] were 3.06 ± 0.058, 3.27 ± 0.068, 3.21 ± 0.049 and 3.25 ± 0.054.
Regarding RKYSFNYSSLPSPYKTT [YAR002W/NUP60], the protein stability index runs as follows: (doa10∆) 2.56 ± 0.054; (pdr5∆) 2.8 ± 0.05; (san1∆) 2.71 ± 0.058; (ubr1∆) 2.71 ± 0.045.
For TLPGDDELDQEILNLST [RPT5], the protein stability index runs as follows: (doa10∆) 3.32 ± 0.12; (pdr5∆) 3.27 ± 0.12; (san1∆) 3.58 ± 0.072; (ubr1∆) 3.45 ± 0.098.
Take VPKLESSRTKFWSFLDS [YJL039C/NUP192]: the protein stability index reads like this: (doa10∆) 1.61 ± 0.29; (san1∆) 1.61 ± 0.13; (ubr1∆) 1.44 ± 0.096.
For the sequence LASFEKTTDHLFDAAFY [RPO31], the protein stability index is 2.9 ± 0.058 (doa10∆), 2.79 ± 0.046 (pdr5∆), 2.96 ± 0.05 (san1∆) and 3 ± 0.043 (ubr1∆).
For TVIKFRAGVCEYNEDSR [RPN13], the protein stability index turned out to be 2.26 ± 0.12 (doa10∆), 1.96 ± 0.071 (pdr5∆), 1.8 ± 0.13 (san1∆) and 2.77 ± 0.07 (ubr1∆).
Turning to APEKDIWVGEWKEVLAH [RPO31], the protein stability index is, setting by setting: (doa10∆) 2.47 ± 0.1; (pdr5∆) 2.17 ± 0.082; (san1∆) 2.16 ± 0.12; (ubr1∆) 2.51 ± 0.062.
The matching figures for YLACKVEECPQYIRTLV [SSN8]: 1.25 ± 0.14, 1.27 ± 0.14, 1.68 ± 0.16 and 1.96 ± 0.17.
As for ACLGNDGILRLYDALEP [YGL100W/SEH1], the protein stability index (doa10∆) is 2.21 ± 0.058, the protein stability index (pdr5∆) was determined as 2.19 ± 0.048, the protein stability index (san1∆) is 1.86 ± 0.065 and the protein stability index (ubr1∆) came to 1.96 ± 0.034.
Taken in the same sequence, the figures for PEPSHIDQVMMSVSDND [RET1] were 2.43 ± 0.047, 2.06 ± 0.045, 2.43 ± 0.05 and 2.48 ± 0.042.
As for REAYIENFAKGEHISAI [SWP82], the protein stability index came out at 2.98 ± 0.07 (doa10∆), 3.11 ± 0.089 (pdr5∆), 2.99 ± 0.061 (san1∆) and 3.07 ± 0.067 (ubr1∆).
In turn, GELRSYLKGATGHSQGL [FAS1] displayed a protein stability index (ubr1∆) of 3.87 ± 0.22.
Turning to YIYSHVNKVPQNVAGDK [SWP82], the protein stability index is 2.79 ± 0.17 (doa10∆), 2.93 ± 0.079 (pdr5∆), 2.96 ± 0.08 (san1∆) and 2.97 ± 0.071 (ubr1∆).
On to NNVDNKYKSGGKFSFSP [SSN2], for which the protein stability index runs as follows: (doa10∆) 2.23 ± 0.054; (pdr5∆) 2.37 ± 0.044; (san1∆) 2.63 ± 0.064; (ubr1∆) 2.17 ± 0.038.
Take RLAKSTENEIPNLIEKM [BRR2]: the protein stability index by setting is: (doa10∆) 1.62 ± 0.08; (pdr5∆) 1.5 ± 0.052; (san1∆) 1.75 ± 0.087; (ubr1∆) 1.68 ± 0.058.
